In US20130337478A1 one finds DBC (dynamic binding capacity) and DBC (dynamic binding capacity) (mg human IgG/ml resin) data, which are given here for 17 molecules.

Positions count from the first letter of the chain named.

To fix the notation:
B1: anti IgG-CH1 VHH #87 (VHH)
VHH: QVQLQESGGGLVQAGASLRLSCEVSGNTLSQYAMGWFRQVPGHKREFVAAIRWTNGNTYYADSVEGRFTISRDSAKKTVYLQMNSLQPDDTAIYYCAARFLPYASSNAYHESLYNYDYWGQGTQVTVSS
B2: anti IgG-CH1 VHH #01 (VHH)
VHH: QVQLQESGGGLVQAGGSLRLSCAVSGNTLSRYAMGWFRQTPGNEREFVAAIRWNNGATYYADSVEGRFTISRDSGKNTVYLQMNNLQPEDTAVYYCAGRFLGYASSNAYHEALYNYDYWGQGTQVTVSS
B3: anti IgG-CH1 VHH #83 (VHH)
VHH: B2 VHH with E6D, T40A, A57N, G75A, N85S, G98A, G102P
B4: anti IgG-CH1 VHH #37 (VHH)
VHH: B2 VHH with N43K, E65K
B5: anti IgG-CH1 VHH #46 (VHH)
VHH: B2 VHH with N43K, Q87K
B6: anti IgG-CH1 VHH #55 (VHH)
VHH: B2 VHH with E65K, Q87K
B7: anti IgG-CH1 VHH #28 (VHH)
VHH: B2 VHH with Q87K
B8: anti IgG-CH1 VHH #73 (VHH)
VHH: B2 VHH with E65K, K76R, Q87K
B9: anti IgG-CH1 VHH #64 (VHH)
VHH: B2 VHH with N43K, E65K, Q87K
B10: anti IgG-CH1 VHH #86 (VHH)
VHH: B2 VHH with E6D, L11S, T40A, A57N, E65K, G75A, N85S, Y95F, G98A, G102P
B11: anti IgG-CH1 VHH #85 (VHH)
VHH: B2 VHH with T40A, N85S
B12: anti IgG-CH1 VHH #84 (VHH)
VHH: B2 VHH with E6D, T40A, A57N, E65K, G75A, N85S, G98A, G102P
B13: anti IgG-CH1 VHH #10 (VHH)
VHH: B2 VHH with N43K
B14: anti IgG-CH1 VHH #89 (VHH)
VHH: B2 VHH with T40A, A57N, E65K, G75A, N85S, G98S, G102P
B15: anti IgG-CH1 VHH #19 (VHH)
VHH: B2 VHH with E65K
B16: anti IgG-CH1 VHH #82 (VHH)
VHH: B2 VHH with T40A, A57N, E65K, G75A, Y80F, N85S, Y95F, G98A, G102P
B17: anti IgG-CH1 VHH #88 (VHH)
VHH: QVQLQESGGGSVQAGGSLRLSCAVSGNTLSRYAMGWFRQAPGNEREFVAAIRWNNGNTYYADSVEGRFTISRYSAKNLVYLQMNSLQAEDTAIYYCAARFLPYASSNAYHEALYNYDYWGQGTQVTVSS

The first experiment deals with polyclonal human IgG. The experiment in a line: affinity chromatography; VHH coupled to NHS-Sepharose 4B FF, polyclonal human IgG 0.5 mg/ml in PBS pH 7.4, 150 cm/hr.
For B1, the DBC (dynamic binding capacity) was determined as 5.64 mg/mL.

Turning to B2, the DBC (dynamic binding capacity) came out at 8.74 mg/mL.

In turn, B3 had a DBC (dynamic binding capacity) of 8.46 mg/mL.

Take B4: the DBC (dynamic binding capacity) came out at 9.8 mg/mL.

B5 displayed a DBC (dynamic binding capacity) of 11.2 mg/mL.

As for B6, the DBC (dynamic binding capacity) amounted to 11.3 mg/mL.

On to B7, for which the DBC (dynamic binding capacity) was found to be 12.5 mg/mL.

Turning to B8, the DBC (dynamic binding capacity) stood at 11.7 mg/mL.

In turn, B9 gave a DBC (dynamic binding capacity) of 10.2 mg/mL.

In the case of B10, the DBC (dynamic binding capacity) amounted to 4.98 mg/mL.

The molecule B11 returned a DBC (dynamic binding capacity) of 11.9 mg/mL.

Molecule B12 displayed a DBC (dynamic binding capacity) of 8.27 mg/mL.

Turning to B13, the DBC (dynamic binding capacity) stood at 12 mg/mL.

For the molecule B14, the DBC (dynamic binding capacity) was found to be 5.61 mg/mL.

In turn, B15 came in with a DBC (dynamic binding capacity) of 9.4 mg/mL.

Take B16: the DBC (dynamic binding capacity) came out at 6.69 mg/mL.

B17 displayed a DBC (dynamic binding capacity) of 7.31 mg/mL.

For the next experiment, the target named is polyclonal human IgG. Put plainly: affinity chromatography; VHH on Sepharose resin at about 15 mg/ml ligand density.
For the molecule B2, the DBC (dynamic binding capacity) (mg human IgG/ml resin) turned out to be 28.
